Reference: patent US20170015708A1 (BIOKINE THERAPEUTICS, published 2017)

Key:
Experiment in all cases: cell-based or functional assay
RANTES (human) = biological target: T1, RANTES (human) (human, UniProt P13501 24-91)
T1 sequence (looked up): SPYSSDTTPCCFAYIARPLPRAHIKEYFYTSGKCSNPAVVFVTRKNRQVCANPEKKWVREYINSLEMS

I-TAC (human) = biological target: T2, I-TAC (human) (human, UniProt O14625 22-94)
T2 sequence (looked up): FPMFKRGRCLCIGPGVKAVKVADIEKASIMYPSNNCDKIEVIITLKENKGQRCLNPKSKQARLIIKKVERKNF

IP-10 (human) = biological target: T3, IP-10 (human) (human, UniProt P02778 22-98)
T3 sequence (looked up): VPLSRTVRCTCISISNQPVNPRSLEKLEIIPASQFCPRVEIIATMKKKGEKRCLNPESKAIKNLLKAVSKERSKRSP

MCP-1 (human) = MCP-1 (human) (human, UniProt P13500 24-99)
Eotaxin (human) = Eotaxin (human) (human, UniProt P51671 24-97)
MIG (human) = biological target: T4, MIG (human) (human, UniProt Q07325 23-125)
T4 sequence (looked up): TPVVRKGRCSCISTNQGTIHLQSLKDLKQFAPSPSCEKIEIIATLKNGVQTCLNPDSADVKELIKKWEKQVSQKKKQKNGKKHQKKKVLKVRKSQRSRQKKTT

Measured: Inhibition of chemokine-dependent T cell adhesion to VCAM-1 (++ = 100% inhibition)

MCP-1 (human), sequence (P13500 24-99 limits assumed): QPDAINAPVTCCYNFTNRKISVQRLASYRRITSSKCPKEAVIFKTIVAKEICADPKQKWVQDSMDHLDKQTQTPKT
Eotaxin (human), sequence (P51671 24-97 limits assumed): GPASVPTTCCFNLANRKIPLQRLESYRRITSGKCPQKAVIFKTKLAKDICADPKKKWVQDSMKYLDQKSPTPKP

B1: BKT-P2 peptide (peptide)
peptide: SIPSHSIHSAKA
100 % inhibition: RANTES (human) | I-TAC (human) | IP-10 (human) | MCP-1 (human) | Eotaxin (human)

B2: BKT-P46 peptide (peptide)
peptide: LDYPIPQTVLHH
100 % inhibition: RANTES (human) | I-TAC (human) | MIG (human) | MCP-1 (human)
